{"source": "patent US6531296B1", "about": "“Nuclear tyrosine kinase Rak” (The University of North Carolina at Chapel Hill, priority 1995, dated 2003)", "target": "T1, CDC2 (Homo sapiens, UniProt P06493)", "T1 construct": "incubated with immunoprecipitated CDC2; endogenous in cells", "T1 sequence (P06493 whole entry, the tested form may be a part)": "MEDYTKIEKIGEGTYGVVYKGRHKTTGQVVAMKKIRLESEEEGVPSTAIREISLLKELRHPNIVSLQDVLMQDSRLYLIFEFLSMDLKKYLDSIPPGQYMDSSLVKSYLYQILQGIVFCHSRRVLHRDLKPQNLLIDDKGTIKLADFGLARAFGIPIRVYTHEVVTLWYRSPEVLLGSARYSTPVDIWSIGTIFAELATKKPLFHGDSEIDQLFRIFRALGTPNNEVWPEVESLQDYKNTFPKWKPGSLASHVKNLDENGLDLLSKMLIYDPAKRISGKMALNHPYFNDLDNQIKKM", "assay": "In vitro kinase assay of immunoprecipitated CDC2 with Histone H1 as exogenous substrate", "assay_type": "biochemical", "procedure": "The 110 N-terminal amino acids of Rak were produced as a GST fusion protein (RAKNT:GST) and incubated with immunoprecipitated CDC2, and subjected to an in vitro kinase assay with Histone H1 added as an exogenous substrate, and analyzed by SDS-PAGE. […] This fusion protein was incubated with immunoprecipitated CDC2, and subjected to an in vitro kinase assay with Histone H1 added as an exogenous substrate, and analyzed by SDS-PAGE.\nThe CDC2 binding domain of RAK appears to be between amino acids 86-110. Since the binding of RAK to CDC2 is exceptionally strong, the biological function of this interaction was explored.", "note": "No end group written: not given here.", "data": [{"sequence": "KRRDGSSQQLQ [SEQ ID NO:4]", "values": [{"measurement": "inhibition of CDC2 histone H1 phosphorylation activity", "result": "reproducibly attenuated"}]}]}
